Where no end group is shown, it is not given here.
T1: Recombinant SIG-10 Fc-fusion protein (R&D Systems) (human, UniProt Q96LC7 17-546, limits assumed)
T1 construct: Bought from R&D Systems; Held on the plate by protein A; not shown: Fc part of the bought fusion protein
T1 sequence (looked up): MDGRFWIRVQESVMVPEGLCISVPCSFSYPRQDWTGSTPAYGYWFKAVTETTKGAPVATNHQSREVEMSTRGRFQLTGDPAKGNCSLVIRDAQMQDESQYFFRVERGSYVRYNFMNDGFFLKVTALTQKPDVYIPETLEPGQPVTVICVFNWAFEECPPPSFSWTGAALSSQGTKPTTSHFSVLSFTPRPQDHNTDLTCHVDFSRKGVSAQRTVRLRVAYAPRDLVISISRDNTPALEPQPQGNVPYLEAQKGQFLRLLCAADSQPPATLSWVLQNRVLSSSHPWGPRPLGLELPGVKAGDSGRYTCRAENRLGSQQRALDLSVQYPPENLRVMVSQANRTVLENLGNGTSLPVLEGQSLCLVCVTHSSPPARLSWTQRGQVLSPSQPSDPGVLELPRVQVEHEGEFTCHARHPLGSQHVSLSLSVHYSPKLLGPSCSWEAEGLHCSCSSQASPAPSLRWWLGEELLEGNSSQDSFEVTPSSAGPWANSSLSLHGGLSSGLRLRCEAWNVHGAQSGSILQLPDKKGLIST


Experiments:
[1] = molecular target: T2, Seq11 (recombinant vWF fragment AA 1-505 of SEQ ID NO: 1 with C-terminal Strep-Tag, from HEK 293) (human, UniProt P04275 764-1268, four O-glycosylation sites 485, 492, 493, 500 occupied (core 1, core 2 and/or extended core 1, sialylated)); test: SIGLEC ELISA with Scatchard analysis (GraphPad Prism); no unit beside the number, concentration axis in µM [panel SIGLEC 5]
T2 construct: Expressed in HEK293 / MEXi-293 cells, purified on Strep-Tactin; not shown: C-terminal Twin-Strep-tag of the pDSG vector (IBA)

[2] = molecular target: T2, Seq11 (recombinant vWF fragment AA …); test: SIGLEC ELISA, Scatchard analysis of the binding curve (apparent KD)
[3] = molecular target: T3, vWF C-terminal fragment (V8 protease digest of plasma derived vWF) (human, UniProt P04275 2129-2813, biotinylated with EZ-Link Sulfo-NHS-Biotin); test: ELISA: SIGLEC-Fc captured on a protein A plate (500 ng/well), biotinylated vWF fragment at 1 µg/mL, streptavidin-HRP, A492, single concentration
T3 construct: the real molecule is only its C-terminal part; also called C-terminal vWF fragment

[4] = molecular target: T1, Recombinant SIG-10 Fc-fusion protein …; test: ELISA: SIGLEC-Fc captured on a protein A plate (500 ng/well), biotinylated cluster fragment at 4 µg/mL, streptavidin-HRP, A492, single concentration
[5] = molecular target: T4, full length plasmatic VWF (Wilate, Octapharma) (human, UniProt P04275 764-2813); test: SPR (Biacore 3000): VWF immobilised on a CM5 chip by amine coupling, FVIII injected 0.2-45 nM; mean of five measurements
T4 construct: multimer

[6] = molecular target: T2, Seq11 (recombinant vWF fragment AA …); test: SIGLEC ELISA with Scatchard analysis (GraphPad Prism); no unit beside the number, concentration axis in µM [panel SIGLEC 9]
[7] = molecular target: T2, Seq11 (recombinant vWF fragment AA …); test: SIGLEC ELISA with Scatchard analysis (GraphPad Prism); no unit beside the number, concentration axis in µM [panel SIGLEC 7]

T2 sequence (P04275 764-1268): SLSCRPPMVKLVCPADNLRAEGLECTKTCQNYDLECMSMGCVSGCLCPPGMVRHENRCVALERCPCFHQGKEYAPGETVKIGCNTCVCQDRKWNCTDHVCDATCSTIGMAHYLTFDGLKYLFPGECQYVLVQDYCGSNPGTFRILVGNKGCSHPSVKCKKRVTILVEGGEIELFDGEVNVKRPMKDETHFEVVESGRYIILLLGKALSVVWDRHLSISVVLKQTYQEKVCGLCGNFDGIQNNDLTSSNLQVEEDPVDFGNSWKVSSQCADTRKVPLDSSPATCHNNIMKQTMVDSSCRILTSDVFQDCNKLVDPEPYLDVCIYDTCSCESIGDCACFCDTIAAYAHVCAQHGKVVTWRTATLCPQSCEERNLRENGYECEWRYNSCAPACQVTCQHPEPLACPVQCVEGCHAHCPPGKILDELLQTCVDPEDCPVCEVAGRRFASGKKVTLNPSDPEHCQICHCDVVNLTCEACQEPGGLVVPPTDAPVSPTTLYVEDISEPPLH
T3 sequence (P04275 2129-2813 limits assumed): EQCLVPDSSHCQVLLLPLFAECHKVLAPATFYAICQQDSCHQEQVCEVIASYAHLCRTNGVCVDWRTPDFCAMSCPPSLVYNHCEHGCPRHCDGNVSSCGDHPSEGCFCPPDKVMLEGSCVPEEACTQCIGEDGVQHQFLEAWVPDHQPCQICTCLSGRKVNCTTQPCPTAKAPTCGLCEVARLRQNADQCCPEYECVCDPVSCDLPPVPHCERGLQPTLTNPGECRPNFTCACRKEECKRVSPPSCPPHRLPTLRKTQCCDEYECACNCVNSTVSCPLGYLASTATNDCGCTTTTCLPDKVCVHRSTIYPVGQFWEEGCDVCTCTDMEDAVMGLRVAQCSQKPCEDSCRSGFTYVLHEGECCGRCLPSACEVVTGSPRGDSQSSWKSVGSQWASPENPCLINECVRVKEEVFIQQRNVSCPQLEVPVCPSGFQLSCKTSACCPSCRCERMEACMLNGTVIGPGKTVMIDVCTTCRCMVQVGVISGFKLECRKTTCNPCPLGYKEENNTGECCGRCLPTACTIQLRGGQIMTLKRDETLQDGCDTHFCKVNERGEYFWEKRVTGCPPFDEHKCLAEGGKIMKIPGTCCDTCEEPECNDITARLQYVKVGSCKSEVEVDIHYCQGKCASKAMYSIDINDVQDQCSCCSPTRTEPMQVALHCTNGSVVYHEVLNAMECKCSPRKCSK
T4 sequence (P04275 764-2813 limits assumed): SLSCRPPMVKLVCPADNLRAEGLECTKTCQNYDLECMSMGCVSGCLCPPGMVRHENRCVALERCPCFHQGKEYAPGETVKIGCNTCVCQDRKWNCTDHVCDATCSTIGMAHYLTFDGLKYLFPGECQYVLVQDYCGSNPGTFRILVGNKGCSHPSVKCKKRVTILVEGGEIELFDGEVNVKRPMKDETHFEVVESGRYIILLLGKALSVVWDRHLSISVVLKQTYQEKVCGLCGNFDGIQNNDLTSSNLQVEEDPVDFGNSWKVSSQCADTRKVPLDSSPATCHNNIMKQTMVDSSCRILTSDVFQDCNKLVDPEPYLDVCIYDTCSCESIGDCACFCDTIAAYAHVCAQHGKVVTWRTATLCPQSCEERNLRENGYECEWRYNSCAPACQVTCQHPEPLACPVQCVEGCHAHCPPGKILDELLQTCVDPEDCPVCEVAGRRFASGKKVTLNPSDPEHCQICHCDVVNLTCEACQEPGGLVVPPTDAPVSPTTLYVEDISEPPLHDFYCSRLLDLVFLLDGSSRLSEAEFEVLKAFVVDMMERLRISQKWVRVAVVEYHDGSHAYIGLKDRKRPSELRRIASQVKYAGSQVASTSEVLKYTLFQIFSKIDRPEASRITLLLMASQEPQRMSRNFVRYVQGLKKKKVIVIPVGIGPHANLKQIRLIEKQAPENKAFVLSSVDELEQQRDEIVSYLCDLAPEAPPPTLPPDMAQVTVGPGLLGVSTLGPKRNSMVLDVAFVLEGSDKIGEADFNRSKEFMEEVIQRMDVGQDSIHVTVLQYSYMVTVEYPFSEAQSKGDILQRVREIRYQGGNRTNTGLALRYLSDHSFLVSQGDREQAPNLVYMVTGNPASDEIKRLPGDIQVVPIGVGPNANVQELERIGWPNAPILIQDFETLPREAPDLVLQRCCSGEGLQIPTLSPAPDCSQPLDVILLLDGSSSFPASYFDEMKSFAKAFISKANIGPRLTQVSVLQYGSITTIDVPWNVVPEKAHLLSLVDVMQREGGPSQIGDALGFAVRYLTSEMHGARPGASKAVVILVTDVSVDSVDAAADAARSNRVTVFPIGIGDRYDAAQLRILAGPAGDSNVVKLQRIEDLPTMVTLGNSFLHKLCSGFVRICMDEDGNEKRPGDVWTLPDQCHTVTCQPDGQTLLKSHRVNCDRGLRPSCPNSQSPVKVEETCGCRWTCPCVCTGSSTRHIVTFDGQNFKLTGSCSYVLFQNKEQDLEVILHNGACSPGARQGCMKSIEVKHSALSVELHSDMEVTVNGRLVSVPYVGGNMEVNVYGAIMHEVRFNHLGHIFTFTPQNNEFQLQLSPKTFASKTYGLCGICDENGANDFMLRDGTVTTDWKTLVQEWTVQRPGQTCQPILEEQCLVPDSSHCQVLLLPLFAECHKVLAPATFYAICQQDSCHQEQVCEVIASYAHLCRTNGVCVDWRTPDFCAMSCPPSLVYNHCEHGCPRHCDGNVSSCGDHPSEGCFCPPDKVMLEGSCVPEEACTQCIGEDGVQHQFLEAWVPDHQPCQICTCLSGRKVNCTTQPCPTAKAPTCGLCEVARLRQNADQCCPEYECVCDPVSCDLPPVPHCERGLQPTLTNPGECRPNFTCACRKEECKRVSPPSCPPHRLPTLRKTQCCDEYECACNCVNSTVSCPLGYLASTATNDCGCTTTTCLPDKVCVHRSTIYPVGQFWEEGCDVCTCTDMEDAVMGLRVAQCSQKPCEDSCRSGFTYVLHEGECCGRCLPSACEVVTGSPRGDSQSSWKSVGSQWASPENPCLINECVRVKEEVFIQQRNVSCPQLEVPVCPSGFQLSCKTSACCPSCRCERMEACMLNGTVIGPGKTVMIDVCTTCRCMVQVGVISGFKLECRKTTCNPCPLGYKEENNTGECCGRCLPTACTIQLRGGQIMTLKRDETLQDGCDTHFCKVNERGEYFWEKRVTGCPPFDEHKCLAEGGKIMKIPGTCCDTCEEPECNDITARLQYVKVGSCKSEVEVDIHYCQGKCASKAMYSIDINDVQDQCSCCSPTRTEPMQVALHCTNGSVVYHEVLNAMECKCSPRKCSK

Kd [2] [nM] | binding result [3] | Binder | further results
494 | no binding (tested: 1 µg/mL) | Recombinant SIG-5 Fc-fusion protein (R&D Systems) (Fc fusion, Bought from R&D Systems; Held on the plate by protein A; also called SIGLEC 5; not shown: Fc part of the bought fusion protein) EKPVYELQVQKSVTVQEGLCVLVPCSFSYPWRSWYSSPPLYVYWFRDGEIPYYAEVVATNNPDRRVKPETQGRFRLLGDVQKKNCSLSIGDARMEDTGSYFFRVERGRDVKYSYQQNKLNLEVTALIEKPDIHFLEPLESGRPTRLSCSLPGSCEAGPPLTFSWTGNALSPLDPETTRSSELTLTPRPEDHGTNLTCQMKRQGAQVTTERTVQLNVSYAPQTITIFRNGIALEILQNTSYLPVLEGQALRLLCDAPSNPPAHLSWFQGSPALNATPISNTGILELRRVRSAEEGGFTCRAQHPLGFLQIFLNLSVYSLPQLLGPSCSWEAEGLHCRCSFRARPAPSLCWRLEEKPLEGNSSQGSFKVNSSSAGPWANSSLILHGGLSSDLKVSCKAWNIYGSQSGSVLLLQGRSNLGT | Kd [1]: 494 nM
– | – | Cluster 2 fragment (tryptic glycopeptide of plasma derived vWF, AA 674 to 728/729) (also: natural O-glycans (sialylated core 2), sites not given here, also called Cluster II; O-glycosylation Cluster II) peptide: AFVLSSVDELEQQRDEIVSYLC(Maleimide‑PEG2‑Biotin)DLAPEAPPPTLPPDMAQVTVGPGLLGVSTLGPKR | binding result [4]: no binding (tested: 4 µg/mL)
– | – | FVIII (Nuwiq, Octapharma) (other, UniProt P00451 20-2351, looked up, Commercial product; also called recombinant FVIII; factor VIII) ATRRYYLGAVELSWDYMQSDLGELPVDARFPPRVPKSFPFNTSVVYKKTLFVEFTDHLFNIAKPRPPWMGLLGPTIQAEVYDTVVITLKNMASHPVSLHAVGVSYWKASEGAEYDDQTSQREKEDDKVFPGGSHTYVWQVLKENGPMASDPLCLTYSYLSHVDLVKDLNSGLIGALLVCREGSLAKEKTQTLHKFILLFAVFDEGKSWHSETKNSLMQDRDAASARAWPKMHTVNGYVNRSLPGLIGCHRKSVYWHVIGMGTTPEVHSIFLEGHTFLVRNHRQASLEISPITFLTAQTLLMDLGQFLLFCHISSHQHDGMEAYVKVDSCPEEPQLRMKNNEEAEDYDDDLTDSEMDVVRFDDDNSPSFIQIRSVAKKHPKTWVHYIAAEEEDWDYAPLVLAPDDRSYKSQYLNNGPQRIGRKYKKVRFMAYTDETFKTREAIQHESGILGPLLYGEVGDTLLIIFKNQASRPYNIYPHGITDVRPLYSRRLPKGVKHLKDFPILPGEIFKYKWTVTVEDGPTKSDPRCLTRYYSSFVNMERDLASGLIGPLLICYKESVDQRGNQIMSDKRNVILFSVFDENRSWYLTENIQRFLPNPAGVQLEDPEFQASNIMHSINGYVFDSLQLSVCLHEVAYWYILSIGAQTDFLSVFFSGYTFKHKMVYEDTLTLFPFSGETVFMSMENPGLWILGCHNSDFRNRGMTALLKVSSCDKNTGDYYEDSYEDISAYLLSKNNAIEPRSFSQNSRHQAYRYRRGEITRTTLQSDQEEIDYDDTISVEMKKEDFDIYDEDENQSPRSFQKKTRHYFIAAVERLWDYGMSSSPHVLRNRAQSGSVPQFKKVVFQEFTDGSFTQPLYRGELNEHLGLLGPYIRAEVEDNIMVTFRNQASRPYSFYSSLISYEEDQRQGAEPRKNFVKPNETKTYFWKVQHHMAPTKDEFDCKAWAYFSDVDLEKDVHSGLIGPLLVCHTNTLNPAHGRQVTVQEFALFFTIFDETKSWYFTENMERNCRAPCNIQMEDPTFKENYRFHAINGYIMDTLPGLVMAQDQRIRWYLLSMGSNENIHSIHFSGHVFTVRKKEEYKMALYNLYPGVFETVEMLPSKAGIWRVECLIGEHLHAGMSTLFLVYSNKCQTPLGMASGHIRDFQITASGQYGQWAPKLARLHYSGSINAWSTKEPFSWIKVDLLAPMIIHGIKTQGARQKFSSLYISQFIIMYSLDGKKWQTYRGNSTGTLMVFFGNVDSSGIKHNIFNPPIIARYIRLHPTHYSIRSTLRMELMGCDLNSCSMPLGMESKAISDAQITASSYFTNMFATWSPSKARLHLQGRSNAWRPQVNNPKEWLQVDFQKTMKVTGVTTQGVKSLLTSMYVKEFLISSSQDGHQWTLFFQNGKVKVFQGNQDSFTPVVNSLDPPLLTRYLRIHPQSWVHQIALRMEVLGCEAQDLY | Kd [5]: 0.3 nM
591 | no binding (tested: 1 µg/mL) | Recombinant SIG-9 Fc-fusion protein (R&D Systems) (Fc fusion, Bought from R&D Systems; Held on the plate by protein A; also called SIGLEC 9; not shown: Fc part of the bought fusion protein) QTSKLLTMQSSVTVQEGLCVHVPCSFSYPSHGWIYPGPVVHGYWFREGANTDQDAPVATNNPARAVWEETRDRFHLLGDPHTKNCTLSIRDARRSDAGRYFFRMEKGSIKWNYKHHRLSVNVTALTHRPNILIPGTLESGCPQNLTCSVPWACEQGTPPMISWIGTSVSPLDPSTTRSSVLTLIPQPQDHGTSLTCQVTFPGASVTTNKTVHLNVSYPPQNLTMTVFQGDGTVSTVLGNGSSLSLPEGQSLRLVCAVDAVDSNPPARLSLSWRGLTLCPSQPSNPGVLELPWVHLRDAAEFTCRAQNPLGSQQVYLNVSLQSKATSGVTQG | Kd [6]: 591 nM
371 | no binding (tested: 1 µg/mL) | Recombinant SIG-7 Fc-fusion protein (R&D Systems) (Fc fusion, Bought from R&D Systems; Held on the plate by protein A; also called SIGLEC 7; not shown: Fc part of the bought fusion protein) QKSNRKDYSLTMQSSVTVQEGMCVHVRCSFSYPVDSQTDSDPVHGYWFRAGNDISWKAPVATNNPAWAVQEETRDRFHLLGDPQTKNCTLSIRDARMSDAGRYFFRMEKGNIKWNYKYDQLSVNVTALTHRPNILIPGTLESGCFQNLTCSVPWACEQGTPPMISWMGTSVSPLHPSTTRSSVLTLIPQPQHHGTSLTCQVTLPGAGVTTNRTIQLNVSYPPQNLTVTVFQGEGTASTALGNSSSLSVLEGQSLRLVCAVDSNPPARLSWTWRSLTLYPSQPSNPLVLELQVHLGDEGEFTCRAQNSLGSQHVSLNLSLQQEYTGKMRPVSGVLLGAVG | Kd [7]: 371 nM

Reference: US20210275644A1 (OCTAPHARMA, published 2021)
